The target of one test is 重组人IL-13 (rh-IL-13) (human, UniProt P35225 35-146). The test can be described thus: cell-based or functional assay.
The next test deals with hTSLP-His (human, UniProt Q969D9 29-159, limits assumed). The test can be described thus: cell-based or functional assay.
Another test deals with T1, 人TSLP (hTSLP) (human, UniProt Q969D9 29-159).
T1 construct: also called rhTSLP
Briefly: SPR and ELISA, conclusion of Example 3. For orientation: In an ELISA, binding on a coated surface is turned into a signal by an enzyme label.

Chain of 重组人IL-13 (rh-IL-13) (P35225 35-146 limits assumed): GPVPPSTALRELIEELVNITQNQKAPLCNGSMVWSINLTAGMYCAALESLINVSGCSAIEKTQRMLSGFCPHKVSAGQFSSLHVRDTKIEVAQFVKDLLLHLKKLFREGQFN

B1: BDG33.023 (antibody, V domains shown)
VH: QMQLVESGGGVVQPGRSLRLSCAASGFAFRTYGMHWVRQAPGKGLEWVAVIWYDGSNTHYADSVKGRFTITRDNSKNTLNLQMNSLRAEDTAVYYCARAPQWYLSAEAFDLWGQGTMVTVSS
VL: SYVLTQPPSVSVAPGQTARITCGGNLIGSKLVHWYQQKPGQAPVLVVYDDSDRPSRIPERFSGSNSGNTATLTISRVEAGDEADYYCQVWDHSSDHVVFGGGTKLTVL
Consider B1, for which the “IC50 (IL-13信号传导级联抑制, HEK-Blue IL-4/IL-13, SEAP)” value in the test with 重组人IL-13 (rh-IL-13) was found to be 1.3 nM. For the same molecule, in the test with hTSLP-His, the “IC50 (MUTZ5细胞中TSLP依赖性pSTAT5活化的抑制)” value came to 0.013 nM.

B2: BDG38.079 (antibody, V domains shown)
VH: QMQLVESGGGVVQPGRSLRLSCAASGFAFRTYGMHWVRQAPGKGLEWVAVIWYDGSNTHYADSVKGRFTITRDNSKNTLNLQMNSLRAEDTAVYYCVRAPQWYLTAEAFDLWGQGTMVTVSS
VL: SYVLTQPPSVSVAPGETATITCGGNMIGGYLVHWYQQKPGQAPLLVIYDDVDRPDRIPERFSGSNSGNTATLTISRVEAGDEADYYCQVWDHDSNTMVFGGGTKLTVL
As for B2, in the test with hTSLP-His, the “IC50 (MUTZ-5细胞pSTAT5抑制)” value is around 0.013 nM.

B3: BDG33.003 (antibody, V domains shown)
VH: QMQLVESGGGVVQPGRSLRLSCAASGFTFRTYGMHWVRQAPGKGLEWVAVIWYDGSNKHYADSVKGRFTITRDNSKNTLNLQMNSLRAEDTAVYYCARAPQWELTAEAFDIWGQGTMVTVSS
VL: SYVLTQPPSVSVAPGQTARITCGGNLIGSKLVHWYQQKPGQAPVLVVYDDSDRPSLIPERFSGSNSGNTATLTISRVEAGDEADYYCQVWDSSSDGVVFGGGTKLTVL
notes: also called BGD33.003; 克隆C2
With B3, the binding result with 人TSLP (hTSLP) was “binds”.

B4: BDG33.025 (antibody, V domains shown)
VH: QMQLVESGGGVVQPGRSLRLSCAASGFTFRTYGMHWVRQAPGKGLEWVADIWYDGSNKHYADSVKGRFTITRDNSKNTLNLQMNSLRAEDTAVYYCARAPQWYLVAEPFDLWGQGTMVTVSS
VL: SYVLTQPPSVSVAPGQTARITCGGNLIGSKLVHWYQQKPGQAPVLVVYDDSDRPSLIPERFSGSNSGNTATLTISRVEAGDEADYYCQVWDSSSDGVVFGGGTKLTVL
For the molecule B4, in the test with 重组人IL-13 (rh-IL-13), the “IC50 (IL-13信号传导级联抑制, HEK-Blue IL-4/IL-13, SEAP)” value is 25 nM.

B5: BDG38.074 (antibody, V domains shown)
VH: QMQLVESGGGVVQPGRSLRLSCAASGFAFRTYGMHWVRQAPGKGLEWVAVIWDDGSNTHYADSVKGRFTITRDNSKNTLNLQMNSLRAEDTAVYYCVRAPQWYLTAEAFDLWGQGTMVTVSS
VL: SYVLTQPPSVSVAPGQTATITCGGNMIGAYLVHWYQQKPGQAPLLVVYDDVDRPNRIPERFSGSNSGNTATLTISRVEAGDEADYYCQVWDHNTDKMVFGGGTKLTVL
With B5, the “IC50 (MUTZ-5细胞pSTAT5抑制)” value with hTSLP-His was around 0.035 nM.
